Data: EP4628095A1 (Xiamen University, dated 2025)

Tests used:
[1] = target: T1, P2-3D-RBD (insect cell expression system); test: SPR (Biacore 8K), HEV-p239 coupled to CM5 chip (Fig. 10A)
T1 construct: also called VHH-RBD

[2] = target: T2, P2-3E-RBD (insect cell expression system); test: as above
T2 construct: also called VHH-RBD

[3] = target: T3, P2-3A-RBD (insect cell expression system); test: as above
T3 construct: also called VHH-RBD

[4] = target: T4, P1-5B-RBD (insect cell expression system); test: as above
T4 construct: also called VHH-RBD; P1-5B-RBD fusion protein

[5] = target: T5, P1-5B-RBD (mammalian cell expression system); test: SPR (Biacore 8K), HEV-p239 coupled to CM5 chip (Fig. 10B)
T5 construct: also called VHH-RBD

[6] = target: T6, P2-3A-RBD (mammalian cell expression system); test: as above
T6 construct: also called VHH-RBD

[7] = target: T7, P2-2C-RBD (mammalian cell expression system); test: as above
T7 construct: also called VHH-RBD

[8] = target: T8, P2-3E-RBD (mammalian cell expression system); test: as above
T8 construct: also called VHH-RBD

[9] = target: T9, P2-5C-RBD (mammalian cell expression system); test: as above
T9 construct: also called VHH-RBD

Measured: binding result

B1: HEV-p239 protein (other)
chain: IALTLFNLADTLLGGLPTELISSAGGQLFYSRPVVSANGEPTVKLYTSVENAQQDKGIAIPHDIDLGESRVVIQDYDNQHEQDRPTPSPAPSRPFSVLRANDVLWLSLTAAEYDQSTYGSSTGPVYVSDSVTLVNVATGAQAVARSLDWTKVTLDGRPLSTIQQYSKTFFVLPLRGKLSFWEAGTTKAGYPYNYNTTASDQLLVENAAGHRVAISTYTTSLGAGPVSISAVAVLAPHSV
notes: also called HEV-p239 particles; HEV particles
binds: all assays above
